Experiment [1] addresses T1, D3 his myc.
T1 construct: VNAR; made in E. coli and in HEK293 (expression system under assay); also called D3 WT
Kind of experiment: competition ELISA: D3 pre-incubated with peptide, residual binding to coated huROR1-Fc. (In general: In an ELISA, binding on a coated surface is turned into a signal by an enzyme label.)

The target of experiment [2] is T2, B1 VNAR with C-terminal His6Myc tag.
T2 construct: VNAR, E. coli; also called B1 his myc; B1HisMyc monomer
Briefly: competition ELISA: B1 pre-incubated with peptide, residual binding to coated huROR1-Fc.
Procedure: (§1) In brief, ELISA method as follows. Wells coated with 100 ng antigen and incubated, covered, at room temperature for 2 hr. Plates washed 3×400 ul per well with PBST (PBS+0.05% Tween 20 (v/v)), then blocked with 4% skimmed milk powder (w/v) in PBST for 1 hour at 37° C. Plates washed as before plus additional wash in PBS alone. Binding proteins were diluted in 4% milk PBST and incubated overnight at 4° C. Plates washed 3× with PBST, 3×PBS and binding detected using appropriate secondary detection antibody in 4% milk PBST, room temperature 1 hour. […] Rabbit anti-Mouse IgG H&L, HRP (Abcam #ab97046) [0360] Mouse anti-polyHis, HRP (Sigma #A7058)
(§2) Competition assays were conducted as described in the methods with all four peptides reconstituted in PBS.

For experiment [3], the target named is T3, P3A1 his myc.
T3 construct: VNAR; also called P3A1 6xHis myc
T3 VNAR: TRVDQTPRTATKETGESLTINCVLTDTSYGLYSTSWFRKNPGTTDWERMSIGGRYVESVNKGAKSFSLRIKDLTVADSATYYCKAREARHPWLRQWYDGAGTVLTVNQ
Kind of experiment: competition ELISA: P3A1 pre-incubated with peptide, residual binding to coated huROR1-Fc.
Procedure: as §1, §2

Experiment [4] concerns the target T4, D3-[G4S]5-D3 his myc.
T4 construct: VNAR homodimer by genetic fusion; also called D3-D3; D3 dimer
Kind of experiment: competition ELISA: D3-D3 pre-incubated with peptide, residual binding to coated huROR1-Fc.

For experiment [5], the target named is T5, rat serum albumin (rat, UniProt P02770 25-608).
T5 construct: also called RSA
T5 sequence (P02770 25-608 limits assumed): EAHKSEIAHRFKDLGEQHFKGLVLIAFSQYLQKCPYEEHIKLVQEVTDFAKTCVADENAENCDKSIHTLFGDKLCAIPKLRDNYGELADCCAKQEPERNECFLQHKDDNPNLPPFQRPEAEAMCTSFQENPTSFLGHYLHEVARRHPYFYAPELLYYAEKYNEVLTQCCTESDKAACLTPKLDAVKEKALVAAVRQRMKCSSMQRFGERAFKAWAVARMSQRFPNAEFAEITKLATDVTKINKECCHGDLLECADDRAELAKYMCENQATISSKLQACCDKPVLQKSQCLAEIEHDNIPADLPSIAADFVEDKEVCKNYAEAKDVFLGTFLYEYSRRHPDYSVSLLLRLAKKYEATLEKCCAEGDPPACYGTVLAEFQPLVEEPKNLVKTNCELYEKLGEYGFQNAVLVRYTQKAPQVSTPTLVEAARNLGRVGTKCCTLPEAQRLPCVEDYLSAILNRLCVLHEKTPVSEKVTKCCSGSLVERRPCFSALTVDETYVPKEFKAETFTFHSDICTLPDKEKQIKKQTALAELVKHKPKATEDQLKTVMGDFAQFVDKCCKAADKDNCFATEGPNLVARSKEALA
Kind of experiment: SPR, albumin on chip, pH 5.5.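 Further: albumins amine-coupled onto carboxyl SPR chips, with each analyte also run over a hen egg lysozyme surface as negative control, Kd derived from binding kinetics.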
Procedure: (§3) Binding kinetics were determined using SPR. The serum albumins or negative control protein were immobilised to COOH₂ chips by amine coupling using optimised buffer conditions as follows: —Human serum albumin (HSA) and mouse serum albumin (MSA) were immobilised in sodium acetate pH5 buffer. Rat serum albumin (RSA) and cynomolgous serum albumin (CSA) in sodium acetate pH 4.5 buffer and the negative control hen egg lysozyme (HEL) protein was immobilised in sodium acetate pH 5.5 buffer.
(§4) For each analyte test experiment, binding to the chosen serum albumin protein was assayed alongside the negative control protein (HEL).

The target in experiment [6] is T6, cynomolgous serum albumin (cynomolgous, UniProt A2V9Z4 25-608).
T6 construct: also called CSA; Cyano
T6 sequence (A2V9Z4 25-608 limits assumed): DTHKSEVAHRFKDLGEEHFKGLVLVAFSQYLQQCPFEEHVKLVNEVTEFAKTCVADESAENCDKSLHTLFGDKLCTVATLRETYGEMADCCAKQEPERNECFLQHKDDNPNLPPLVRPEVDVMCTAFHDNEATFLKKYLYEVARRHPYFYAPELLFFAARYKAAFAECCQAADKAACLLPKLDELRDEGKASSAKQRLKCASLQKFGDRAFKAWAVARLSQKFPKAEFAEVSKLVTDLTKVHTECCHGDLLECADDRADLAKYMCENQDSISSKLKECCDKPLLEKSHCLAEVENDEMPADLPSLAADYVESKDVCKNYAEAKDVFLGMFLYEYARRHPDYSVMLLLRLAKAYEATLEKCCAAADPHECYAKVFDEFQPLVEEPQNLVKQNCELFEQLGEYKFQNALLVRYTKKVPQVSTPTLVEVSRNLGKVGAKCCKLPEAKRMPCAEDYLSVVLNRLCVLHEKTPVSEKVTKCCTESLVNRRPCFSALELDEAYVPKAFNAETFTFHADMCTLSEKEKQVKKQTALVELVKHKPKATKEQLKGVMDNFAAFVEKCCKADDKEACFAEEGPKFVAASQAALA
Kind of experiment: SPR, albumin on chip, pH 5.5.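 Further: albumins amine-coupled onto carboxyl SPR chips, with each analyte also run over a hen egg lysozyme surface as negative control, Kd derived from binding kinetics.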 On the technique in general: SPR reads the build-up and loss of mass on a sensor chip optically.
Procedure: as §3, §4

Experiment [7] deals with T7, human serum albumin (human, UniProt P02768 25-609).
T7 construct: also called HSA
Briefly: SPR, albumin on chip, pH 5.5.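 Further: albumins amine-coupled onto carboxyl SPR chips, with each analyte also run over a hen egg lysozyme surface as negative control, Kd derived from binding kinetics.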
Procedure: as §3, §4

Experiment [8] addresses T8, mouse serum albumin (mouse, UniProt P07724 25-608).
T8 construct: also called MSA
Briefly: SPR, albumin on chip, pH 5.5.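 Further: albumins amine-coupled onto carboxyl SPR chips, with each analyte also run over a hen egg lysozyme surface as negative control, Kd derived from binding kinetics.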
Procedure: as §3, §4

Experiment [9] concerns the target T5, rat serum albumin. Briefly: SPR, albumin on chip, pH 7.4.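 Further: Human, mouse, rat and cynomolgus serum albumins amine-coupled to carboxyl sensor chips, with a hen egg lysozyme surface measured in parallel as negative control.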
Procedure: as §3, §4
The target in experiment [10] is T6, cynomolgous serum albumin. Briefly: SPR, albumin on chip, pH 7.4.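 Further: Human, mouse, rat and cynomolgus serum albumins amine-coupled to carboxyl sensor chips, with a hen egg lysozyme surface measured in parallel as negative control.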
Procedure: as §3, §4
Experiment [11] has as its target T7, human serum albumin. Briefly: SPR, albumin on chip, pH 7.4.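 Further: Human, mouse, rat and cynomolgus serum albumins amine-coupled to carboxyl sensor chips, with a hen egg lysozyme surface measured in parallel as negative control.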
Procedure: as §3, §4
In experiment [12] the target is T8, mouse serum albumin. Briefly: SPR, albumin on chip, pH 7.4.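 Further: Human, mouse, rat and cynomolgus serum albumins amine-coupled to carboxyl sensor chips, with a hen egg lysozyme surface measured in parallel as negative control.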
Procedure: as §3, §4

This note sets out measurements from patent publication US20230203155A1 (ALMAC DISCOVERY, published 2023).

T8 sequence (P07724 25-608 limits assumed): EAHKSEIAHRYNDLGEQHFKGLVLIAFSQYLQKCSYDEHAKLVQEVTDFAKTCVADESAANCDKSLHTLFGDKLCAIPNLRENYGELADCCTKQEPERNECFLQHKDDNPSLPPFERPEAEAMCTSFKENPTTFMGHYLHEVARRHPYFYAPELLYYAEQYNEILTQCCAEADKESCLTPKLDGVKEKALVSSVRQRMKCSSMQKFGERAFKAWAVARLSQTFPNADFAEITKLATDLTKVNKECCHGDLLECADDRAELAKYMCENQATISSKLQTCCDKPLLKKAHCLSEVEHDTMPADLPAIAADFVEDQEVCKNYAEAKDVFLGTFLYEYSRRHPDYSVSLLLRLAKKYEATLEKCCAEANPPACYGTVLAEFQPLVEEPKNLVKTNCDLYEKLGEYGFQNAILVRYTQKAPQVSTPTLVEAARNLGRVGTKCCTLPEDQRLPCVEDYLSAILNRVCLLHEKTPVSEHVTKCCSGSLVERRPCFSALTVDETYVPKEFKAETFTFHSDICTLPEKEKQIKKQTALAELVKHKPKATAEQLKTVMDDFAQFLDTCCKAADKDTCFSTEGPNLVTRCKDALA

For the molecule QCVATNGKEVVSSTGVLFVKFGPPPTASPGYSDEYE (linear ROR1 ECD peptide) [Peptide 4], the binding result is recorded as “no binding” in experiment [1], “no binding (tested: 10 uM)” in [2], “no binding (tested: about 500 uM as the axis is labelled)” in [3] and “no binding” in [4].

As to CQPWNSQYPHTHTFTALRFP (linear ROR1 ECD peptide) [Peptide 3], the binding result in [1] is “no binding”; in [2], “no binding (tested: 10 uM)”; in experiment [3] it was “no binding (tested: about 500 uM as the axis is labelled)”; in [4] it was “no binding”.

B1: BA11-oxime-fluorescein (VNAR)
VNAR: TRVDQSPSSLSASVGDRVTITCVLTDTSYPLYSTYWYRKNPGSSNKEQISISGRYSESVNKGTKSFTLTISSLQPEDSATYYCRAMSTNIWTGDGAGTKVEIK
modifications: C-terminal oxime-linked benzaldehyde-peg-fluorescein
By Kd is commonly meant the constant that tells how readily two partners part at equilibrium. Read a low Kd as higher affinity. Take B1: the equilibrium dissociation constant (Kd) in [5] came to 5.93 nM; in experiment [6], 5.54 nM; in experiment [7], 1.3 nM; in experiment [8] it was 7.44 nM; in [9], 5.72 nM; in [10], 1.75 nM. The Kd in [11] amounted to 0.677 nM; in experiment [12], 4.24 nM.

B2: BA11-C terminal cysteine-maleimide-peg-fluorescein (VNAR)
VNAR: B1 VNAR
modifications: C-terminal cysteine conjugated to maleimide-peg-fluorescein
notes: also called BA11-cys-mal-Fl
For B2, the dissociation constant (Kd) came to 7.24 nM in experiment [5]; 8.21 nM in experiment [6]; 3.16 nM in experiment [7]; 13.6 nM in [8]; 4.78 nM in experiment [9]; 3.68 nM in experiment [10]. For the same molecule, the Kd came out at 1.1 nM in experiment [11] and 5.06 nM in experiment [12].

B3: BA11-C term thiol-maleimide-peg-fluorescein (VNAR)
VNAR: B1 VNAR
modifications: C-terminal thiol conjugated to maleimide-peg-fluorescein
notes: also called BA11-S-mal-Fl
Turning to B3, the dissociation constant Kd in [5] turned out to be 7.92 nM; in [6] it was 7.01 nM; in [7], 1.91 nM; in experiment [8] it was 10.6 nM; in [9], 5.3 nM; in experiment [10], 2.3 nM. Further, the Kd was 1.42 nM in experiment [11] and 5 nM in experiment [12].

B4: BA11 C-terminal thiol derivative (VNAR)
VNAR: B1 VNAR
modifications: C-terminal thiol (intein cleavage with cysteamine)
notes: also called BA11-SH
As to B4, the equilibrium dissociation constant (Kd) in [5] is 12.1 nM; in experiment [6], 6.74 nM; in experiment [7], 2.23 nM; in experiment [8] it was 11.1 nM; in [9] it was 7.67 nM; in experiment [10], 3.41 nM. Also, the values for the dissociation constant (Kd) in [11] and in experiment [12] were 0.774 nM and 4.76 nM, respectively.

B5: Peptide 2 (peptide)
peptide: RSTIYGSRLRINLDTTDTGYFQ
notes: linear ROR1 ECD peptide; insoluble in PBS
Consider B5, for which the binding result in experiment [1] is on record as “no binding”; in [2] it was “no binding (tested: 10 uM)”; in experiment [3] it was “no binding (tested: about 500 uM as the axis is labelled)”; in experiment [4] it was “no binding”.

As for YMESLHMQGEIENQI (linear ROR1 ECD peptide) [Peptide 1], the binding result in experiment [1] is “no binding”; in [2], “no binding (tested: 10 uM)”; in [3] it was “no binding (tested: about 500 uM as the axis is labelled)”; in [4], “no binding”.
